# According to publication PMC10140031:
# Assays:
# [1] = biological target: His-ISG65_(18-363)-Avi, C-terminally biotinylated (T. b. gambiense); test: SPR; biotinylated His-ISG65_(18-363)-Avi immobilised on Series S sensor chip CAP, BIAcore T200, 25 °C; 20 mM HEPES pH 7.5, 150 mM NaCl, 3 mM EDTA, 0.005% TWEEN-20; analytes C3d and C3d mutants (0.78-50 nM), native C3, C3b, C3MA, C3c
# [2] = biological target: His-C3d-Avi, biotinylated (human); test: SPR; biotinylated His-C3d-Avi immobilised on Series S sensor chip CAP, BIAcore T200, 25 °C; 20 mM HEPES pH 7.5, 150 mM NaCl, 3 mM EDTA, 0.005% TWEEN-20; analytes ISG65 and ISG65 mutants 1.5-100 nM
# [3] = biological target: Alexa Fluor 594 labelled human C3b (human) (UniProt P01024); test: flow cytometry on cells; competition: recombinant ISG65 at 1.5-fold molar excess preincubated with AF594 labelled C3b for 10 min before addition to T. b. gambiense cells on ice
# Sequence of Alexa Fluor 594 labelled human C3b (human) (P01024 23-667, chain 1 of 2): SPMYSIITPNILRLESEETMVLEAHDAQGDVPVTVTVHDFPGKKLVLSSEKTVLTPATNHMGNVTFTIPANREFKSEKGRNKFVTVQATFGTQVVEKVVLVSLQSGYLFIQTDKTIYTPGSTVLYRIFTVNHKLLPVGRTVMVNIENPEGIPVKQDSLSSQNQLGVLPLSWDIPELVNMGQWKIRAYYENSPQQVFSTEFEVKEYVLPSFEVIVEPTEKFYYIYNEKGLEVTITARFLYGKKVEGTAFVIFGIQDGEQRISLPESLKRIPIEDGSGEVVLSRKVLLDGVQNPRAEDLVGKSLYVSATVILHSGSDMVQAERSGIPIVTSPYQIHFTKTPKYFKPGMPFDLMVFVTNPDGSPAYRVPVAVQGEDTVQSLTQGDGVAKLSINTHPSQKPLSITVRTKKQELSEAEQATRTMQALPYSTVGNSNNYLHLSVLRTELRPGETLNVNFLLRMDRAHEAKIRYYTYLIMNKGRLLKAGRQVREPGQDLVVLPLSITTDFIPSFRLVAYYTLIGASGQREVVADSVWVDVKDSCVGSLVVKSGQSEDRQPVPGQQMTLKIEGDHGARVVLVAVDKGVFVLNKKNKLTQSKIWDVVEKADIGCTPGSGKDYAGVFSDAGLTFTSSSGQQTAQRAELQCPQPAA
# Sequence of Alexa Fluor 594 labelled human C3b (human) (P01024 749-1663, chain 2 of 2): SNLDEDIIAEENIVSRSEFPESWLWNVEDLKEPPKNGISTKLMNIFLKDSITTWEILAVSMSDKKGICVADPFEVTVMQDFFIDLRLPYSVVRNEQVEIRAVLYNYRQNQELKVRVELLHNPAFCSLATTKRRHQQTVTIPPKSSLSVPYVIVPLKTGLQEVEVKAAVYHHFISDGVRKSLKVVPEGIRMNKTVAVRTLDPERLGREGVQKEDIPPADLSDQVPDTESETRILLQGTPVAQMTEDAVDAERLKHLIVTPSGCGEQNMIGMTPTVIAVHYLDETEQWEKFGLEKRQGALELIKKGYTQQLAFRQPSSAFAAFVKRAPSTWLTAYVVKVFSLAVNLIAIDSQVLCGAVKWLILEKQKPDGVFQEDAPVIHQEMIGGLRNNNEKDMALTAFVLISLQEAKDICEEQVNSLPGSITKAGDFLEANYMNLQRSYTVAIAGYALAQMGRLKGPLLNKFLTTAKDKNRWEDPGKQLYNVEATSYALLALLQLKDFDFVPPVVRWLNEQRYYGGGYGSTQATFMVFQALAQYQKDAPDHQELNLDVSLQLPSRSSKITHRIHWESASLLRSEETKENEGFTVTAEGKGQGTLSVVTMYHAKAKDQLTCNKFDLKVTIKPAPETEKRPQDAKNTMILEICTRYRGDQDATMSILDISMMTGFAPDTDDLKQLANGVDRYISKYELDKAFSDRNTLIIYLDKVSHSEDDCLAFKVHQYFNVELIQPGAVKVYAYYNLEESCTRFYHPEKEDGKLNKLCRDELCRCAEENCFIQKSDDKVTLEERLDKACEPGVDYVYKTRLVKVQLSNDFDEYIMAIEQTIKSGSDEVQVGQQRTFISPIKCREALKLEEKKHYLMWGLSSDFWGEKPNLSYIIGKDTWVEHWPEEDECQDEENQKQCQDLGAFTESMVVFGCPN
# [4] = biological target: native human complement C3 (human) (UniProt P01024)
# Sequence of native human complement C3 (human) (P01024 23-667, chain 1 of 2): as the sequence (P01024 23-667, chain 1 of 2) above
# Sequence of native human complement C3 (human) (P01024 672-1663, chain 2 of 2): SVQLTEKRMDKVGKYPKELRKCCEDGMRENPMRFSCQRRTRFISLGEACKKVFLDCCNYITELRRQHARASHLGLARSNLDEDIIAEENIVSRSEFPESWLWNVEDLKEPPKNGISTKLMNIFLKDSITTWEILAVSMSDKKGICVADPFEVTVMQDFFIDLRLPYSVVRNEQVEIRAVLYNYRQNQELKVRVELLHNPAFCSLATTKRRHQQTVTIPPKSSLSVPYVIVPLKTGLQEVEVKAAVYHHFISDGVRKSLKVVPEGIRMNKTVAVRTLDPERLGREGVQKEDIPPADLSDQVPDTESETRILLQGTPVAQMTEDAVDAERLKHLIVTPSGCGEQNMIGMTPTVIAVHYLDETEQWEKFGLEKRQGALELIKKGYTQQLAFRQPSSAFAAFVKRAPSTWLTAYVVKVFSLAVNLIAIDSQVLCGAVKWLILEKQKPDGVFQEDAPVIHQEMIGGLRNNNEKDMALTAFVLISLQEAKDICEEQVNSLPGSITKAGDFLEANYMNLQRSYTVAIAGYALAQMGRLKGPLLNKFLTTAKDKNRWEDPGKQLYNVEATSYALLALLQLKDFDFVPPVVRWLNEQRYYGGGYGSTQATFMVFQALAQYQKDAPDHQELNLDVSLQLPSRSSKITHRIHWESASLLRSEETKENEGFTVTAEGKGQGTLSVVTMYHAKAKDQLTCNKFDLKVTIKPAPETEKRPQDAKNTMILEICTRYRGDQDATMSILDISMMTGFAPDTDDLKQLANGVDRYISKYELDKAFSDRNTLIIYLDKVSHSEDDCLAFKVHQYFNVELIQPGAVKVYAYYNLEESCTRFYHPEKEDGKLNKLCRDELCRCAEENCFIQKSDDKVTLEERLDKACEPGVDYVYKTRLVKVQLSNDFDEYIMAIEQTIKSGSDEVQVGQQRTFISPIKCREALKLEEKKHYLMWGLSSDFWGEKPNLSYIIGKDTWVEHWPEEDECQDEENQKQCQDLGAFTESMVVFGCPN
# [5] = biological target: His-C3d-Avi, biotinylated; test: SPR
# [6] = biological target: His-ISG65_(18-363) Lys97Ala (T. b. gambiense); test: SPR; His-ISG65_(18-363) covalently immobilised via amine coupling; C3a (8-0.25 µM) flown over at 30 µl/min, 100 s association, 300 s dissociation; regeneration 1 M NaCl
# [7] = biological target: His-ISG65_(18-363), extracellular domain of invariant surface glycoprotein 65 of T. b. gambiense (T. b. gambiense); test: as above
# [8] = biological target: His-ISG65_(18-363) Glu302Ala (T. b. gambiense); test: as above
# [9] = biological target: His-ISG65_(18-363), extracellular domain of invariant surface glycoprotein 65 of T. b. gambiense (T. b. gambiense); test: cross-linking; ISG65 and C3b mixed 2:1, 100x molar excess of DSA, 20 mM HEPES pH 7.5, 150 mM NaCl, room temperature 30 min; SDS-PAGE
# Sequence of human complement C3a (P01024 672-748): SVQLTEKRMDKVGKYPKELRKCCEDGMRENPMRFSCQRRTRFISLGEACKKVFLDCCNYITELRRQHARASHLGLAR
substance,measurement,setting,value
"C3MA, methylamine-treated human C3 (from UniProt P01024 23-667; P01024 672-1663) (natural protein)",Kd,[1],18 nM
His-C3d Arg1134Ala (domain or fragment),KD relative to wild type (so in the source),[1],30%
"His-C3d, recombinant human C3d (domain or fragment)",Kd,[1],7 nM
His-ISG65_(18-363) Trp211Ala (domain or fragment),KD relative to wild type (so in the source),[2],42%
"His-ISG65_(18-363), extracellular domain of invariant surface glycoprotein 65 of T. b. gambiense (domain or fragment)",percent reduction of C3b surface binding to T. b. gambiense cells,[3],60%
same,"AP50 haemolysis assay: lysis of rabbit erythrocytes in human serum after activation of the alternative pathway, soluble ISG65 7.5-0 µM",[4],< 90%
"His-ISG65_(18-363), extracellular domain of invariant surface glycoprotein 65 of T. b. gambiense T297A",percent of parent,[5],15%
"His-ISG65_(18-363), extracellular domain of invariant surface glycoprotein 65 of T. b. gambiense Y70A",percent of parent,[5],36%
human complement C3a (from UniProt P01024 672-748) (domain or fragment),Kd,[6],80000 nM
same,Kd,[7],18000 nM
same,Kd,[8],78000 nM
human complement C3b (from UniProt P01024 23-667; P01024 749-1663) (domain or fragment),Kd,[1],81 nM
same,stoichiometry N,[9],1
native human complement C3 (from UniProt P01024 23-667; P01024 672-1663) (natural protein),Kd,[1],130 nM
